Three variants from article PMC9701752 can be followed below.

B1: PTPRJ transmembrane domain construct for the AraTM assay, wild type (five extracellular residues, putative TMD, 20 cytoplasmic juxtamembrane residues) [human] / FLT3 transmembrane domain construct for the AraTM assay (five … (parent)
chain 1: QDPGVICGAVFGCIFGALVIVTVGGFIFWRKKRKDAKNNEVSFSQIKP
chain 2: QDNISFYATIGVCLLFIVVLTLLICHKYKKQFRYESQLQMVQVTG

The variants in the assay derive from B1. The assay is described as follows: DN-AraTM assay. The following applies: with FLT3 transmembrane domain construct for the AraTM assay (five extracellular residues, putative TMD, 20 cytoplasmic juxtamembrane residues); FLT3-AraC co-expressed with PTPRJ TMD-AraC* competitor; n=9; parent: 0.8; read off a plot.
As for chain 1 G16L, the response (normalized GFP signal (FLT3 alone = 1)) came out at 0.55.

Turning to chain 1 G12L, the response (normalized GFP signal (FLT3 alone = 1)) turned out to be 0.56.

chain 1 G8L: the response (normalized GFP signal (FLT3 alone = 1)) was determined as 0.5.
